In article PMC7102993:
Blank lines part the entries; values can stand above or below the substance they belong to.

Assays:
[1] = target: NrS-1 polymerase C-terminal region (residues 301-718) (phage NrS-1); assay: crystal structure; A-form NrS-1 CTR crystals, space group P212121, grown at 16°C in 2.8 M sodium acetate trihydrate pH 7.0; six monomers per asymmetric unit
[2] = target: NrS-1 polymerase C-terminal region (residues 301-718) (phage NrS-1); assay: crystal structure; B-form NrS-1 CTR crystals, space group P213, grown at 16°C in 1.6 M NaH2PO4/0.4 M K2HPO4, 0.1 M phosphate-citrate pH 4.2; two monomers per asymmetric unit, hexamer by symmetry operation; 2.4 Å
[3] = target: full-length NrS-1 polymerase (wild type) (phage NrS-1); assay: SEC; Superose 6 Increase 10/300 GL; 20 mM Tris pH 8.0, 2 mM DTT with 500 mM NaCl (high salt) or 200 mM NaCl (low salt); monomer at 15.83 ml, hexamer at 13.5 ml
[4] = target: full-length NrS-1 polymerase (wild type) (phage NrS-1); assay: negative-stain electron microscopy; protein from the first peak of the size-exclusion column, diluted to 40 μg/ml in low-salt buffer, stained with 0.75% uranyl formate; 2D class averages and 3D map (RELION)
[5] = target: full-length NrS-1 polymerase K525A mutant (phage NrS-1); assay: SEC; Superose 6 Increase 10/300 GL; 20 mM Tris pH 8.0, 2 mM DTT with 500 mM NaCl (high salt) or 200 mM NaCl (low salt); monomer at 15.83 ml, hexamer at 13.5 ml

- stoichiometry N [1]: 6
- stoichiometry N [2]: 6
Substance: NrS-1 polymerase C-terminal region (residues 301-718) (domain or fragment)

- stoichiometry N [3]: 6
- stoichiometry N [4]: 6
Substance: full-length NrS-1 polymerase (wild type) (enzyme)

- stoichiometry N [5]: 6
Substance: full-length NrS-1 polymerase K525A mutant (enzyme)
